Here are results for 18 molecules from patent US20220112288A1 (published 2022).

As a reminder, the Kd is a measure of binding affinity in units of concentration. The koff is a measure of how fast the partners let go of each other. The kon is a measure of how fast the partners come together.

Where a chain is given by its changes, count along the chain named.

The labels stand for the following.
B1: 75110_14P08A (antibody, V domains shown)
VH: QVQLQESGPGLVKSSETLSLTCTDSGDSIRSYYWNWIRQPAGKGLEWIGRIYASGSTNYNPSLKSRVIMSADTSKNRFSLKLSSVTAADTAVYYCARDGGVGDSLDYWGQGTLVTVSS
VL: DIVMTQTPLSLPVTPGEPASISCRSSQSLLDSDDGNTYLDWYLQKPGQSPQLLIYTLSYRASGVPDRFSGSGSGTDFTLKISRVEAEDVGVYYCMQRIEFPFTFGPGTKVDIK
notes: Tested as non-clonal AlivaMab Mouse Kappa hybridoma supernatant, captured by anti-mouse IgG Fc sensor
B2: 75110_02E08A (antibody, V domains shown)
VH: QVQLQESGPGLVKPSETLSLTCTVSGGSISTYYWTWIRQPAGKGLEWIGRVYTSGDTNYNPSLKSRVAMSLDTSKNQFSLKLSSVTAADTAVYYCARDSGALYSWNYGDAFDIWGQGTMVTVSS
VL: DIQMTQSPSAMSASVGDRVTITCRASQDISNYLAWFQQKPGKVPKRLIYAASSLQSGVPSRFSGSGSGTEFTLTISSLQPEDFATYYCLQHNSYPRTFGQGTKVEIK
notes: Tested as antibody purified from AlivaMab Mouse hybridoma supernatant (captured by anti-mouse IgG Fc)
B3: 75110_02E22A (antibody, V domains shown)
VH: QVQLQESGPGLVKPSETLSLTCTVSGGSISSFYWSWIRQPAGKGLEWIGRIYTSGSTNYNPSLKSRVTMSVDTSKNQFSLKLSSVTAADTAVYYCARELEKRNYYGMDVWGQGTTVTVSS
VL: DIQMTQSPSSLSASVGDRVTITCQASHDISNYLNWYQQKPGKAPKLLIFDASTLETGVPSRFSGSGSGTYFTFTIRSLQPEDIATYYCQQYDSLPLTFGGGTKVEIK
notes: as for B2
B4: 75110_04D20A (antibody, V domains shown)
VH: B3 VH with G26N, S31D, F32Y, V67I, K81E, K101R, R102Y, N103Y, Y104F, M107V
VL: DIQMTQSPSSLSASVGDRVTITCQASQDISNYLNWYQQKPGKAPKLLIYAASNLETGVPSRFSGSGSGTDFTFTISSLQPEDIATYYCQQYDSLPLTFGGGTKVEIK
notes: as for B2
B5: 75110_04H17A (antibody, V domains shown)
VH: QVQLQESGPGLVKPSETLSLTCTVSGGSISTYYWSWIRQSAGKGLEWIGRIYTSERPNYNPSLKSRVTMSVDTSKNQFSLKLNSVSAADTAVYYCARELERPYYYGMDVWGQGTTVTVSS
VL: B3 VL with I2V, D17G, H27Q, F49Y, D50Y, T53N, Y70D, R76S, I83F, S93N
notes: as for B2
B6: 75110_05E13A (antibody, V domains shown)
VH: EVQLVESGGDLVKPGGSLRLSCAASGFSFSNAWMSWVRQAPGKGLEWVGRVESKTDGGTTDYAAPVKDRFTISRDDSKYTLYLQMNSLKTEDSAVYYCTIGGGFGLELYGFFDYWGQGTLVTVSS
VL: DIQMTQSPSTLSASVGDRVTITCRASQSISSWLAWYQQKPGKAPMLLIYKASSLESGVPSRFSGSGSGTEFTLTISSLQPDDFATYYCLQYNSYYTFGQGTKLEIK
notes: as for B2
B7: 75110_01L08A (antibody, V domains shown)
VH: QVQLQESGPGLVKPSETLSLTCTVSGGSISHYYWSWIRQPPGKGLEWIGYIHYSGTTNYNPSLKSRVTISVDTSKNQLSLKLRSVTAADTAVYYCARDQGFSSGGMDVWGQGTTVTVSS
VL: not shown
notes: as for B2
B8: 75110_02I16A (antibody, V domains shown)
VH: QVQLQQWGAGLLKPSETLSLTCDVYGGSFSGYYWTWIRQPPGKGLEWIGEINHSGTTNSNPSLKSRVTISVDTSKSQFSLRLSSVTAADTAVYFCTRELNWFDPWGQGTLVTVSS
VL: DIQMTQSPSSVSASVGDRVTITCRASQDIANWLAWYQQKPGKAPQLLIYAASSLLGGVPSRFSGSGSGADFTLTISSLHPEDFATYYCQQANSFPYTFGQGTKLEIK
notes: as for B2
B9: 75110_02K11A (antibody, V domains shown)
VH: QVQLQESGPGLVKPSQTLSLTCTVSGGSISSGFYYWTWIRQHPGKGLEWIGYISYSGNTYYNPSFKSRLTISVDTSKSQFSLKLSSVTAADTAVYYCARDRPSNFDAFDIWGQGTMVTVSS
VL: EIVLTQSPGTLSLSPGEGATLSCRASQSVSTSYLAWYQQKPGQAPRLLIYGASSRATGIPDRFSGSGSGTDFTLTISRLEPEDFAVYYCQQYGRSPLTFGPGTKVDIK
notes: as for B2
B10: 75110_04G16A (antibody, V domains shown)
VH: B9 VH with G27D, F33Y, T37S, N58S, F65L, D74N, S78N, V87L
VL: EIVLTQSPGTLSLSPGERATLSCRASQSVGSTYLAWYQQKPGQAPRLLIYGAFSRATGIPDRFSGSGSGTDFTLTISRLEPEDFAVYYCQQYGSSPLTFGPGTKVDIK
notes: as for B2
B11: 75110_03C01A (antibody, V domains shown)
VH: QVQLQQWGAGLLKPSETLSLTCAVYGGSFSGYYWSWIRQSPGKGLEWIGEINQSGSTNYNPSLKSRVTISVDTSKDQFSLKLSSVTAADTAVYYCARVINWFDSWGQGSLVTVSS
VL: DIQMTQSPSSVSASVGDRVTITCRASQGISSWLAWYQQKPGNAPKLLIYDASSFQSGVPSRFSGSGSGTDFTLTISSLQTEDFATYYCQQANSFPYTFGQGTKLEIK
notes: as for B2
B12: 75110_04P08A (antibody, V domains shown)
VH: B11 VH with F29L, K81R, S83T, A96T, I99L, S104P, Q107R, S109T
VL: B11 VL with I21L, G28D, S31N, N42K, D50A, F54L
notes: as for B2
B13: 75110_05B13A (antibody, V domains shown)
VH: QVLLEQWGAGLLKPSETLSLTCAVYGGSFSGYYWTWIRQPPGKGLEWIGEINHRGSTNYNPSLKSRVTISIDTSKNQFSLKVKSVTAADTAMYYCTRPDSNWFDPWGQGTLVTVSS
VL: B8 VL with A30S, Q45K, Y49F, L55Q, G56S, A69T, H79Q, Y96L, Q100G, L104V
notes: as for B2
B14: 75110_04B08A (antibody, V domains shown)
VH: QVQLVESGGGVVQPGRSLRLSCTASGFNFINYGIHWVRQAPGKGLEWVTIIWYDGSKKYYADSVKGRFAISRDNSKNTLYLQMNSLRAEDTAVYYCAREDDWNDGLAYWGQGTLVTVSS
VL: AIQMTQSPSSLSASVGDRVTITCRASQDIRNDLGWYQQKPGKAPNLLIYAASNLQSGVPSRFSGSGSGTDFTLTISSLQPEDFATYYCLQDSNYPRTFGQGTKVEIK
notes: as for B2
B15: 75110_05E05A (antibody, V domains shown)
VH: QVQLQESGPGLVKPSETLSLTCTVSGGSIGSYYWSWIRQPAGKGLEWIGRIYTSGSTNYNPSLKSRVTMSFDTSKNQFSLKLNSVTAADTAVYYCATDGGVGDSLDYWGQGTLVTVSS
VL: B1 VL with R97H
notes: as for B2
B16: 75110_01J09A (antibody, V domains shown)
VH: EVQLVESGGGLVQPGGSLRLSCVASGFTFSSYWMSWVRQAPGKGLEWVANTKEDGSDKYYVDSVKGRFTICRDNAKNSLYLQMNSLRAEDTAVYYCAREGGQWLALDYWGQGTLVTVSS
VL: DIQMTQSPSSVSASVGDRVTINCRASQGISSWLAWYQQKPGKAPNLLIFGASSLQSGVPSRFSGSGFGTDFSLTITTLQPEDFATYHCQQANSFPWTFGQGTKVEIK
notes: as for B2
B17: 75110_03B16A (antibody, V domains shown)
VH: B16 VH with V23A, T51I, K52N, D57E, Y59N, C71S, Y80C, M83L, Y95H
VL: DIQMTQSPSSVSASVGDRVNITCRASQGIRSWLAWYQQKPGKTPKLLICGASSLQSGVPSRFSGSGSGTDFTLTISSLQPEDFATYYCQQANSFPWTFGQGTTVEIK
notes: as for B2
B18: 75110_03I08A (antibody, V domains shown)
VH: QVQLQESGPGLVKPSETLSLTCTVSGGSISSYYWSWIRQPPGKGLEWIGYIYYSGSTNYNPSLKSRVTISVDTSKNQFSLKLSSVTAADTAVYYCAREGEQWFYGLDVWGQGTTVTVSS
VL: EIVLTQSPGTLSLSPGERATLSCRASQSVSSTYLAWYQQKPGQAPRLLIYGSSSRATGIPDRFSGSGSGTDFTLTISRLEPEDFAVYYCQQYGNSFPITFGQGTRLEIK
notes: as for B2

In the first assay the target is T1, Recombinant human CD4 (R&D Systems, Cat. 10327-CD) (human, UniProt P01730 26-390, limits assumed).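 Note: Single-concentration kinetics per supernatant, with the 1:1 model fitted across both the association and dissociation phases of the sensorgram.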
T1 construct: Bought reagent; also called huCD4
Briefly: BLI Octet, non-clonal supernatant on AMC sensor, 100 nM human CD4, 1:1 local fit. (In BLI a coated tip is dipped into the sample, and binding shifts an interference pattern.)
B1: the dissociation constant (Kd) turned out to be 7.47 nM, the off-rate (koff) amounted to 0.00134 s⁻¹ and the kon was 179000 M⁻¹ s⁻¹.

Another assay deals with T2, Rhesus macaque CD4-HIS (Acro Biosystems, Cat. CD4-C52H7) (rhesus macaque, UniProt P16003 26-390).
T2 construct: Bought reagent; also called Rhesus CD4; rhesus CD4-HIS; not shown: His tag
T2 sequence (P16003 26-390 limits assumed): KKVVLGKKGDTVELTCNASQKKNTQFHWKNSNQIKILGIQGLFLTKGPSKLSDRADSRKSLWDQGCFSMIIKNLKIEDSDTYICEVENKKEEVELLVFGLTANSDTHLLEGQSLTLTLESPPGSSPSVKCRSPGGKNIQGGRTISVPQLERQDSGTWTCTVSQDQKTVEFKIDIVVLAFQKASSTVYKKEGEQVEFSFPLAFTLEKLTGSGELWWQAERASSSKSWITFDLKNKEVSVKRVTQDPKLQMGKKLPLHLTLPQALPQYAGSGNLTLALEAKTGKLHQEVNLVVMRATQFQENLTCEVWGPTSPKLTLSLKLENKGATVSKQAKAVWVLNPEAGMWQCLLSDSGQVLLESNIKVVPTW
Briefly: BLI Octet, mAb on anti-mouse Fc sensor, rhesus CD4-HIS 25-100 nM, 1:1 global fit.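 Note: purified antibodies captured at 10 µg/mL, rhesus CD4 analyte run as a three-concentration serial dilution, irrelevant antibody as reference control, one kinetic constant set per antibody from global fitting.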
In the case of B2, binding was characterised by a dissociation constant (Kd) of 12 nM, the Response is 0.04, the off-rate constant (koff) came to 0.00091 s⁻¹ and the kon worked out at 79000 M⁻¹ s⁻¹.

As to B3, the affinity, expressed as Kd, was 51 nM; the Response is 0.15; the koff stood at 0.0044 s⁻¹; the kon was 87000 M⁻¹ s⁻¹.

As to B4, binding was put at a Kd of 12 nM, the Response worked out at 0.13, the koff turned out to be 0.0017 s⁻¹ and the kon was 140000 M⁻¹ s⁻¹.

B5 returned a Kd of 1.7 nM, a Response of 0.18, a koff of 0.0002 s⁻¹ and a kon of 120000 M⁻¹ s⁻¹.

Molecule B6 gave a dissociation constant (Kd) of 6.7 nM, a Response of 0.03, a koff of 0.0079 s⁻¹ and a kon of 1.2e+06 M⁻¹ s⁻¹.

Consider B7, for which the dissociation constant (Kd) is 8.1 nM, the Response was found to be 0.06, the off-rate constant (koff) stood at 0.0011 s⁻¹ and the kon was 140000 M⁻¹ s⁻¹.

As for B8, the Kd is 37 nM, the Response came out at 0.14, the off-rate constant (koff) is 0.0092 s⁻¹ and the kon stood at 250000 M⁻¹ s⁻¹.

Take B9: the Kd is 26 nM, the Response was 0.13, the koff came out at 0.0015 s⁻¹ and the kon turned out to be 59000 M⁻¹ s⁻¹.

B10: the affinity, expressed as Kd, was 2.4 nM; the Response was 0.27; the dissociation rate constant (koff) was found to be 0.00022 s⁻¹; the kon was determined as 92000 M⁻¹ s⁻¹.

As for B11, the Kd was 9.8 nM, the Response was 0.18, the koff was 0.0027 s⁻¹ and the on-rate (kon) stood at 280000 M⁻¹ s⁻¹.

For B12, the equilibrium dissociation constant (Kd) amounted to 60 nM, the Response stood at 0.12, the koff worked out at 0.0091 s⁻¹ and the kon came out at 150000 M⁻¹ s⁻¹.

Molecule B13 displayed a dissociation constant (Kd) of 4.7 nM, a Response of 0.14, an off-rate (koff) of 0.002 s⁻¹ and a kon of 420000 M⁻¹ s⁻¹.

For B14, the dissociation constant (Kd) came to 18 nM, the Response came to 0.26, the koff is 0.0048 s⁻¹ and the kon worked out at 270000 M⁻¹ s⁻¹.

In turn, B15 came in with a Kd of 2.3 nM, a Response of 0.06, an off-rate constant (koff) of 4.9e-05 s⁻¹ and a kon of 21000 M⁻¹ s⁻¹.

Regarding B16, the affinity, expressed as Kd, was 70 nM; the Response was determined as 0.17; the koff was 0.0032 s⁻¹; the kon worked out at 46000 M⁻¹ s⁻¹.

The molecule B17 registered a Kd of 23 nM, a Response of 0.19, a koff of 0.004 s⁻¹ and a kon of 170000 M⁻¹ s⁻¹.

As to B18, binding was put at a Kd of 6.1 nM, the Response came to 0.04, the off-rate (koff) stood at 0.00061 s⁻¹ and the kon is 100000 M⁻¹ s⁻¹.
